Laboratory results: patent US20140086913A1 (Gilead, published 2014)

T1: mouse ECD-DDR1-Fc (mouse; human, UniProt Q03146 22-414)
T1 construct: also called mouse DDR1-ECD; wild-type mouse DDR1-ECD; not shown: human IgG1 Fc of the vector pFuse-hIgG1-Fc1 (Invivogen)
T1 sequence: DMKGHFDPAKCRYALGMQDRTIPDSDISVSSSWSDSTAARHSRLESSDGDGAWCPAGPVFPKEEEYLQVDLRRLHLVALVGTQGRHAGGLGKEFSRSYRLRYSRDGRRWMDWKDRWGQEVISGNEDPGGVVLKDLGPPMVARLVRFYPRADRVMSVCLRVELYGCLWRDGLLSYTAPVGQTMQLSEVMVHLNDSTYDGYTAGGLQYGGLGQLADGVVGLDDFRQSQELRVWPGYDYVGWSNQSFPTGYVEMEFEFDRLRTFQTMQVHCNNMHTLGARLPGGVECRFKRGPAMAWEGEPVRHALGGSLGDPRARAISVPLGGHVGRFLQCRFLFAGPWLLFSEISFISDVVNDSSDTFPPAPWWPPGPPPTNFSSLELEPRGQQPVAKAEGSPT

T2: human DDR2 stably expressed on HEK293 cells (human, UniProt Q16832 22-855)
T2 construct: whole, on cells; also called hDDR2
T2 sequence (looked up): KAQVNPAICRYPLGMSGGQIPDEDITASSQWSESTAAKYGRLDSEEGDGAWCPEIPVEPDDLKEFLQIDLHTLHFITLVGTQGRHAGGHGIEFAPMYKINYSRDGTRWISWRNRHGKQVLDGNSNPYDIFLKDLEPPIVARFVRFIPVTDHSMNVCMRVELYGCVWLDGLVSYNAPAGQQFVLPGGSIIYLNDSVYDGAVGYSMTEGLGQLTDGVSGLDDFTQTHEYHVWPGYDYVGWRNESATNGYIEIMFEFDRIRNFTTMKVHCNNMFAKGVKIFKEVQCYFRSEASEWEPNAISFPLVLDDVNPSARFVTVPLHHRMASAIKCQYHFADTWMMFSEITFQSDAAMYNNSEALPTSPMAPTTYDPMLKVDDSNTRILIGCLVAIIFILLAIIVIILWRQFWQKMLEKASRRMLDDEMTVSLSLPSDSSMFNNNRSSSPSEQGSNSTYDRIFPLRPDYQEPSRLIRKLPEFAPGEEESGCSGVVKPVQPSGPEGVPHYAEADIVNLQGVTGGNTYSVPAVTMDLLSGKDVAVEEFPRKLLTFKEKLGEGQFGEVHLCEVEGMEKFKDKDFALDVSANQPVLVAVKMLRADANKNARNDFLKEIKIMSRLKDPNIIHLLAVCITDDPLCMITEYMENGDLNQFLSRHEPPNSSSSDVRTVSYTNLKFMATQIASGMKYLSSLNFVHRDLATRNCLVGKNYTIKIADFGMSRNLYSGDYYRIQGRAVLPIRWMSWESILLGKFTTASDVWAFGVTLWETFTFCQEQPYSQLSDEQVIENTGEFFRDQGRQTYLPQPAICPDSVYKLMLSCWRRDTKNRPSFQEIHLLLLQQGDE


How the values were obtained:
[1] = biological target: DDR1 endogenously expressed on human cancer cell lines (T47D, HCT-116, A431) (human) (UniProt Q08345); assay: cell-based or functional assay
[2] = biological target: DDR1 with a ProLink Tag (PK) in engineered U20S cells (DiscoveRx) (UniProt Q08345); assay: cell-based or functional assay
[3] = biological target: T3, DDR1ECD-Fc (R&D Systems, Catalog #2396-DR) (human, UniProt Q08345 21-416); assay: ELISA, coated antigen, apparent KD
T3 construct: range 21-416; construct as described for the bought immunogen; also called human ECD-DDR1-Fc; Fc-ECD-DR1; not shown: human IgG1, Pro100-Lys330
Description: (§1) In this study, ELISA was used to determine the affinity of murine anti-DDR1 monoclonal antibodies to the extracellular domain (ECD) of either human or murine DDR1. A 96-well MaxiSorb ELISA plates (Nunc) were coated with 2 μg/mL of one of three purified recombinant tagged proteins: human ECD-DDR1-His protein, human ECD-DDR1-Fc, or mouse ECD-DDR1-Fc overnight at 4° C. The next day, the plates were blocked with 5% bovine serum albumin (BSA, Jackson Immunoresearch) prior to the addition of serially diluted anti-DDR1 monoclonal antibodies. Antibodies were incubated for 1 hr at room temperature. The binding of antibody to the antigen was detected by incubating samples with anti-mouse IgG-HRP (horse radish peroxidase) secondary detection antibody (Jackson Immunoresearch) for 1 hr. After a washing step, 3,3′,5,5″-tetramethylbenzidine (TMB) reagent was added for HRP to produce a colorimetric signal. The reaction was stopped by addition of 1M hydrochloric acid after 2 minutes and measured for absorbance (optical density, OD) at 450λ on a Molecular Devices plate reader. The OD values were plotted against antibody concentration and fitted using a using 4-parameter logistic equation in SoftMax software (Molecular Devices). The apparent affinity constant (KD) was taken from the C-parameter of the equation (y=(A−D)/(1+(x/C)̂B)+D). The apparent affinity constants were summarized (in some cases shown as average values) in Table 10 below. Lower value indicates higher binding affinity of the antibody to the antigen.

[4] = biological target: T1, mouse ECD-DDR1-Fc; assay: ELISA, coated antigen, apparent KD
Description: as §1

[5] = biological target: T4, human ECD-DDR1-His protein (human, UniProt Q08345 21-416); assay: ELISA, coated antigen, apparent KD
T4 construct: also called huDDR1-ECD-His; DDR1ECD-6Xhis; not shown: His tag
Description: as §1

[6] = biological target: T2, human DDR2 stably expressed on HEK293 …; assay: flow cytometry, HEK293/hDDR2
Description: Additional monoclonal antibodies were obtained from individual hybridomas in Example 1 and were characterized for their properties.
Cells were cultured in DMEM with 10% FBS and 0.8 mg/mL hygromycin. When cells reached 60-80% confluence, they were centrifuged at 1,200 rpm for 5 minutes, suspended in FACS buffer (1×PBS, 1% BSA), and aliquoted into a 96-well plate at 1×10⁶ cells per well. The anti-DDR1 monoclonal antibodies or appropriate isotype controls at 2 μg per 1×10⁶ cells were added and incubated at 4° C. for 1 hr. The cells were washed twice with FACS buffer then stained with the anti-IgG-PE secondary antibody at 10 μL per well at 4° C. for 1 hr. The cells were washed again and measured for the MFI values or signals using flow cytometry (LSR Fortessa instrument, BD Biosciences). Background MFI signals from vector-only cells (i.e. no DDR1 or DDR2 expression) was subtracted from those of the cells treated with antibodies. Higher MFI values or signals indicated increased binding or specificity of the anti-DDR1 antibodies to the DDR1 on the cell surface.

[7] = biological target: DDR1 endogenously expressed on human cancer cell lines (T47D, HCT-116, A431) (human) (UniProt Q08345); assay: flow cytometry, T47D cells
[8] = biological target: human DDR1 (isoform B) stably expressed on HEK293 cells (human) (UniProt Q08345); assay: flow cytometry, HEK293/hDDR1
Sequence of human DDR1 (isoform B) stably expressed on HEK293 cells (human) (Q08345 19-913): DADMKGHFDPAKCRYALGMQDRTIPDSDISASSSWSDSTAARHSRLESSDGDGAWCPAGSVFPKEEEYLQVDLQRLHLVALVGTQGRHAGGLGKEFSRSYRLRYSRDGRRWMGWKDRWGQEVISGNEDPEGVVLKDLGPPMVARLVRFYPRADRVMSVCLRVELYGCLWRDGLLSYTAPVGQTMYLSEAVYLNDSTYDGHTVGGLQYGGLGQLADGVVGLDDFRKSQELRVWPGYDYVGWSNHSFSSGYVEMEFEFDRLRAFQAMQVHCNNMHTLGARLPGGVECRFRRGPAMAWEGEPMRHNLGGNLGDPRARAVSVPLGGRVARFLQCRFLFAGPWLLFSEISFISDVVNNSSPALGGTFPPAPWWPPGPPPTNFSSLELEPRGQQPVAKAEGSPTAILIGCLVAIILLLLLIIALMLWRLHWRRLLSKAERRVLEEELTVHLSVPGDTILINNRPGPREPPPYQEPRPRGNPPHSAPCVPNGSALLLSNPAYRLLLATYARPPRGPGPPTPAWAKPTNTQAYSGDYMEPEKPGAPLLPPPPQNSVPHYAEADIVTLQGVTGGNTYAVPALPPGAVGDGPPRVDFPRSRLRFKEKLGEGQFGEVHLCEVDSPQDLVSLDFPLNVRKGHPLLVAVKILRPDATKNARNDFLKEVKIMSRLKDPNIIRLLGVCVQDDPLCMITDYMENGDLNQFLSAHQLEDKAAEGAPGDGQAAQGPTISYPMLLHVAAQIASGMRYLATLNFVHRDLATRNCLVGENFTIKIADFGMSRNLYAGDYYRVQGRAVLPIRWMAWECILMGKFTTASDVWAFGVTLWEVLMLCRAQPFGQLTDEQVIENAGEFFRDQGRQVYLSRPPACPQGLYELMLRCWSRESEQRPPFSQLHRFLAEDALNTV

[9] = biological target: DDR1 endogenously expressed on human cancer cell lines (T47D, HCT-116, A431) (human) (UniProt Q08345); assay: flow cytometry, HCT116 cells
[10] = biological target: human DDR1 (isoform B) stably expressed on HEK293 cells (human) (UniProt Q08345); assay: flow cytometry, HEK293/human DDR1, normalized to empty-vector cells
[11] = biological target: T3, DDR1ECD-Fc (R&D Systems, Catalog …); assay: ELISA

EC50, DDR1 phospho-specific ELISA (T47D) [1] | EC50, cluster formation assay (A431 cells) [1] | Maximal inhibition, DDR1 phospho-specific ELISA (T47D) [1] | NPI of cluster formation at 66 nM (A431 cells) [1] | Mean EC50, DDR1 Tyr513 phosphorylation assay (U20S) [2] | Kd [3] | Kd [4] | Kd [5] | MFI [6] | MFI [7] | MFI [8] | MFI [9] | MFI [10] | Kd [11] | Binder
0.66 nM | 0.88 nM | 100% | 126% | 2.5 nM | 0.418 nM | 28 nM | 0.391 nM | 384 MFI | 4620 MFI | 7500 MFI | 1200 MFI | – | – | AB2061 (antibody, V domains shown, mouse hybridoma mAb) VH: EIQLQQSGPELVNPGASVKVSCKASGYSFTDYNMYWVKQSHGKSLEWIGYIDPYNGGTSYNQKFKGKATLTVDKSSSTAFMHLNSLTSEDSAVYYCAREYYGSRLWYFDVWGAGTAVTVSS VL: DIVMTQSPSSLAMSVGQKVTMSCKSSQSLLNRNNQKNYLAWYQQKPGQSPKLLVYFASTRESGVPDRFIGSGSGTDFTLTLSSVRAEDLAENFCQQHYSTPFTFGSGTRLEIKR
0.47 nM | – | 100% | 112% | 1.5 nM | 0.259 nM | 28.5 nM | 0.47 nM | 382 MFI | 4420 MFI | 7810 MFI | 1470 MFI | 7810 MFI | 0.259 nM | AB2074 (antibody, V domains shown, mouse hybridoma mAb) VH: EIQLQQSGPELVNPGASVKVSCKASGYSFTDYNMYWVKQSHGKSLEWIGYIDPYNGGTSYNQKFKGKATLTVDKSSSTAFMHLNSLTSEDSAVYYCAREYYGSRLWYFDVWGAGTAVTVSS VL: DIVMTQSPSSLAMSVGQKVTMSCKSSQSLLNRNNQKNYLAWYQQKPGQSPKLLVYFASTRESGVPDRFIGSGSGTDFTLTLSSVRAEDLAENFCQQHYSTPFTFGSGTRLEIKR
